Each block holds one molecule with its values, some of them ahead of it.
Columns and labels:
NCCc1ccc(O)c(O)c1 = test: purified protein; conditions: 200 μM SAM, 50 mM HEPES pH 7.5, 100 mM KCl, 20 mM MgCl2, 25 °C
[1] = target: T1, TmMtaD (SAH deaminase from Thermotoga maritima) (Thermotoga maritima, UniProt Q9X034); test: GDH-coupled NADH oxidation at […] nm; type: biochemical; conditions: 50 mM potassium phosphate pH 7.5, 50 mM KCl, 20 mM MgCl2
T1 sequence (Q9X034 1-406): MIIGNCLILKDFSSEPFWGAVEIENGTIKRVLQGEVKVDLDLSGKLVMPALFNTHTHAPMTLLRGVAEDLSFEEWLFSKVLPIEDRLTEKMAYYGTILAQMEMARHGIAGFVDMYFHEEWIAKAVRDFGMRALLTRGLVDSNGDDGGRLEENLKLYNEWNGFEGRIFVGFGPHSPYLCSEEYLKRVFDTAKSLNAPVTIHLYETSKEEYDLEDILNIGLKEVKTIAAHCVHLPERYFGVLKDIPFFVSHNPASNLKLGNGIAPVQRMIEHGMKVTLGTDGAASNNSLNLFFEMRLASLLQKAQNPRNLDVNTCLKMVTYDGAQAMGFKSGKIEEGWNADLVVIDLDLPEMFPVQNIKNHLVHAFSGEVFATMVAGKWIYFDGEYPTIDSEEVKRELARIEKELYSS

purified protein = substrate: NCCc1ccc(O)c(O)c1; test: purified protein; type: biochemical, Rattus norvegicus; conditions: 200 μM SAM, 50 mM HEPES pH 7.5, 100 mM KCl, 20 mM MgCl2, 25 °C

Molecule: MxSafC (SafC O-MT from Myxococcus xanthus) (Myxococcus xanthus)
Km (NCCc1ccc(O)c(O)c1): 270 ± 14 µM | kcat (NCCc1ccc(O)c(O)c1): 0.039 ± 0.001 s⁻¹

Km [1]: 180 ± 60 µM
Molecule: Nc1ncnc2c1ncn2[C@@H]1O[C@H](CSCC[C@H](N)C(=O)O)[C@@H](O)[C@H]1O [SAH]

B1: RnCOMT (catechol-O-MT from Rattus norvegicus) (Rattus norvegicus) (protein)
chain: MGDTKEQRILRYVQQNAKPGDPQSVLEAIDTYCTQKEWAMNVGDAKGQIMDAVIREYSPSLVLELGAYCGYSAVRMARLLQPGARLLTMEMNPDYAAITQQMLNFAGLQDKVTILNGASQDLIPQLKKKYDVDTLDMVFLDHWKDRYLPDTLLLEKCGLLRKGTVLLADNVIVPGTPDFLAYVRGSSSFECTHYSSYLEYMKVVDGLEKAIYQGPSSPDKS
Km (purified protein): 144 ± 15 µM | kcat (purified protein): 0.072 ± 0.002 s⁻¹

Reference: PMC9542197 (Chembiochem, 2022)
